# B1: TIP1 expressed in HeLa cells from pcDNA3.1TIP1 (other)
# chain: MAETEALSKLREDFRMQNKSVFILGASGETGRVLLKEILEQGLFSKVTLIGRRKLTFDEEAYKNVNQEVVDFEKLDDYASAFQGHDVGFCCLGTTRGKAGAEGFVRVDRDYVLKSAELAKAGGCKHFNLLSSKGADKSSNFLYLQVKGEVEAKVEELKFDRYSVFRPGVLLCDRQESRPGERLVRKFFGSLPDSWASGHSVPVVTVVRAMLNNVVRPRDKQMELLENKAIHDLGKAHGSLKP
# B2: Tat-interacting protein 30 (TIP30), endogenous 30 kDa protein from HeLa extract (other)
# chain: AETEALSKLREDFRMQNKSVFILGASGETGRVLLKEILEQGLFSKVTLIGRRKLTFDEEAYKNVNQEVVDFEKLDDYASAFQGHDVGFCCLGTTRGKAGAEGFVRVDRDYVLKSAELAKAGGCKHFNLLSSKGADKSSNFLYLQVKGEVEAKVEELKFDRYSVFRPGVLLCDRQESRPGERLVRKFFGSLPDSWASGHSVPVVTVVRAMLNNVVRPRDKQMELLENKAIHDLGKAHGSLKP
# What was measured:
# [1] = target: HIV-1 Tat (HIV-1, UniProt P04608); assay: cell-based or functional assay
# [2] = target: GST (glutathione S-transferase) control column (Schistosoma japonicum (Blood fluke), UniProt P08515 = GST); assay: affinity chromatography of HeLa whole cell extract, SDS-PAGE, silver stain
binder,measurement,setting,value
B1,CAT expression from HIV-1 LTR-CAT reporter in cotransfected HeLa cells,[1],8.9 fold
B2,binding result,[2],no binding

# Source: patent US6013515, “Cofactors for HIV-1 protein Tat and methods of use therefor” (The Rockefeller University, dated 2000)
